Experiment [1] has as its target T1, human IL-2Rγ expressed on cells (human, UniProt P31785 23-369).
T1 construct: whole, on cells; on cells it stands together with the cytokine-specific receptor subunits; also called IL-2Rgamma; CD132
T1 sequence (looked up): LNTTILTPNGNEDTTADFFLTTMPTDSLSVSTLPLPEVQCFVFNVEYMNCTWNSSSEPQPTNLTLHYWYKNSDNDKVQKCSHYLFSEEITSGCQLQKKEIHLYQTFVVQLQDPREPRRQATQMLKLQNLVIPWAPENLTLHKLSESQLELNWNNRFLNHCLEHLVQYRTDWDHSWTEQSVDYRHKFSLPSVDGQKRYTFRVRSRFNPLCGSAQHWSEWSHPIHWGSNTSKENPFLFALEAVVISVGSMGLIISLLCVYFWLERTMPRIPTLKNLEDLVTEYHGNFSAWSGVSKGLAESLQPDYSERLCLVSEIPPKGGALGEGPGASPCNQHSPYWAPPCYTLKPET
The experiment in a line: flow cytometry on Jurkat cells, antibody at 10 µg/ml, MFI of sample over MFI of unstained; upper end, tied to H4H12889P by Table 9-1. As for the experimental part:
(§1) For flow cytometry analyses, the cells were pre-incubated with mouse IgG at 100 μg/ml for 15 minutes at room temperature (RT) to block the binding of the antibodies to Fc receptors. […] Cells were washed, fixed using BD CytoFix™ (BD biosciences, #554655) and analyzed on an IQue® (Intellicyt®) Flow Cytometer or Accuri Flow cytometer (BD). […] The results were analyzed using ForeCyt® (IntelliCyt®) software to determine the geometric means of fluorescence (MFI) for viable cells. Binding ratios were calculated by normalizing the MFI of the test sample by the MFI of the unstained sample.

Experiment [2] deals with T1, human IL-2Rγ expressed on cells. Put plainly: flow cytometry on NK-92 cells, antibody at 10 µg/ml, MFI of sample over MFI of unstained; upper end, tied to H4H12889P by Table 9-1. The protocol:
as §1
(In general: A flow cytometer gives signals particle by particle.)

The target is the same in experiment [3]. Put plainly: flow cytometry on NK-92 cells, antibody at 10 µg/ml, MFI of sample over MFI of unstained; lower end, tied to H4H12859P by Table 9-1. As for the experimental part: as §1
Experiment [4] has the same target. Put plainly: flow cytometry on NK-92 cells, antibody at 10 µg/ml, MFI of sample over MFI of unstained; lower end, tied to H4H13538P by Table 9-2. The protocol: as §1
The target is the same in experiment [5]. The experiment in a line: flow cytometry on NK-92 cells, antibody at 10 µg/ml, MFI of sample over MFI of unstained; upper end, tied by Table 9-2 to the row printed H4H13841P.
Experiment [6] addresses T2, Human IL2Rγ extracellular domain expressed with a C-terminal mouse IgG2a Fc tag (human).
T2 construct: whole entry is the Fc-fused construct; also called hIL-2Rg-mFc
T2 chain: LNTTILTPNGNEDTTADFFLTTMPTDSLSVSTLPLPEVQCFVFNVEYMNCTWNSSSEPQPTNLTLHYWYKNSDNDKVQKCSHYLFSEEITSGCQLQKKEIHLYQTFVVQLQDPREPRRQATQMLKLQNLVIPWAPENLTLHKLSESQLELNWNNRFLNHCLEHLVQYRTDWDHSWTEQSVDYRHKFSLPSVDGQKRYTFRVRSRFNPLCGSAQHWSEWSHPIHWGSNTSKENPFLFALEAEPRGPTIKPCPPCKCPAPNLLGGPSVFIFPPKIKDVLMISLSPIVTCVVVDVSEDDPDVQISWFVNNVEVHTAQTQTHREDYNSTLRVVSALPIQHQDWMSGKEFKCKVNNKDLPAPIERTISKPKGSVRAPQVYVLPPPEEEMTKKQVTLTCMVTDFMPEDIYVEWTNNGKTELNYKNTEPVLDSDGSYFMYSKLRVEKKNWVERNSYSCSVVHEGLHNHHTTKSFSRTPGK
The experiment in a line: SPR Biacore 4000, anti-hFc-captured mAb, 25 C; no dissociation observed, kd manually fixed at 1.00E-05.

The target in experiment [7] is T3, Macaca fascicularis IL2Rγ extracellular domain expressed with a C-terminal myc-myc-hexahistidine tag (Macaca fascicularis).
T3 construct: whole entry is the tagged construct; also called mfIL-2Rg-MMH
T3 chain: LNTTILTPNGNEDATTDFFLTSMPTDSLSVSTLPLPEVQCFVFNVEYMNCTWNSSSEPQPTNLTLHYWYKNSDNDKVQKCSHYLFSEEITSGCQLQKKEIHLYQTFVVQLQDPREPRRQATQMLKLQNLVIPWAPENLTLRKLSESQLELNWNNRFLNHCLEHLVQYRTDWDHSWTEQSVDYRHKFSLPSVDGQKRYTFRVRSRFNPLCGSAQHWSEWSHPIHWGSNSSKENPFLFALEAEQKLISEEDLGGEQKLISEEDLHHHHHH
Put plainly: SPR Biacore 4000, anti-hFc-captured mAb, 37 C. In outline:
(§2)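 Surface plasmon resonance with anti-hFc-captured antibodies in pH 7.4 HEPES-buffered saline containing EDTA and Tween-20; kinetic constants from a 1:1 model.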
Background: SPR reads the build-up and loss of mass on a sensor chip optically.

For experiment [8], the target named is T2, Human IL2Rγ extracellular domain …. Put plainly: SPR Biacore 4000, anti-hFc-captured mAb, 37 C. An outline of the steps:
as §2

Experiment [9] addresses T4, Rat IL2Rγ extracellular domain expressed with a C-terminal myc-myc-hexahistidine tag (rat).
T4 construct: whole entry is the tagged construct; also called rIL-2Rg-MMH; rat IL-2Rg-MMH
T4 chain: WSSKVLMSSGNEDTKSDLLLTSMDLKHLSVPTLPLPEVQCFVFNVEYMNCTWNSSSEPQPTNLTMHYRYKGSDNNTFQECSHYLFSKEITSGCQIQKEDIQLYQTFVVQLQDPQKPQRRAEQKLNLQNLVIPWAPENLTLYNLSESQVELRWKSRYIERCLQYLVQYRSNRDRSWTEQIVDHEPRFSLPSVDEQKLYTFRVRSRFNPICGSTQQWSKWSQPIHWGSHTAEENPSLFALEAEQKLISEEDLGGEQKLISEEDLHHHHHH
Put plainly: SPR Biacore 4000, anti-hFc-captured mAb, 37 C. An outline of the steps: as §2

Experiment [10] has as its target T5, Mouse IL2Rγ extracellular domain expressed with a C-terminal myc-myc-hexahistidine tag (mouse).
T5 construct: whole entry is the tagged construct; also called mIL-2Rg-MMH
T5 chain: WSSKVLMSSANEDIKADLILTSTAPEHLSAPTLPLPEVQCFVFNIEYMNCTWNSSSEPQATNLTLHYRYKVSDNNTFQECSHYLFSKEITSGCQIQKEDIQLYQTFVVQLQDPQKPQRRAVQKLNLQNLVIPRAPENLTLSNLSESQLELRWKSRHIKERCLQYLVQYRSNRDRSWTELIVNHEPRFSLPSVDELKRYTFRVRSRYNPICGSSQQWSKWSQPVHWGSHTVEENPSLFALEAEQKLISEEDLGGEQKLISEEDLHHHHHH
The experiment in a line: SPR Biacore 4000, anti-hFc-captured mAb, 37 C. An outline of the steps:
as §2

Experiment [11] concerns the target T2, Human IL2Rγ extracellular domain …. Put plainly: SPR Biacore 4000, anti-hFc-captured mAb, 37 C; no dissociation observed, kd manually fixed at 1.00E-05.
Experiment [12] shares this target. Put plainly: SPR Biacore 4000, anti-hFc-captured mAb, 37 C; computed with kd fixed at 1.00E-05. As for the experimental part:
(§3) Equilibrium dissociation constants (KD values) for IL-2Rγ binding to purified anti-IL2Rγ monoclonal antibodies were determined using a Biacore 4000 instrument equipped with a real-time surface plasmon resonance biosensor. All binding studies were performed in 10 mM HEPES, 150 mM NaCl, 3 mM EDTA, and 0.05% v/v Surfactant Tween-20, pH 7.4 (HBS-ET) running buffer at 25° C. and 37° C. The Biacore sensor surface was first derivatized by amine coupling with a monoclonal mouse anti-human Fc antibody (GE, # BR-1008-39) to capture anti-IL2Rγ monoclonal antibodies.
(§4) The dissociation of monoclonal antibody bound IL2Rγ reagents were monitored for 8-10 minutes in HBS-ET running buffer. Kinetic association (kₐ) and dissociation (kd) rate constants were determined by fitting the real-time sensorgrams to a 1:1 binding model using Scrubber 2.0c curve fitting software. Binding dissociation equilibrium constants (KD) and dissociative half-lives (t_{1/2}) were calculated from the kinetic rate constants as: […]

The target is the same in experiment [13]. The experiment in a line: SPR Biacore 4000, anti-hFc-captured mAb, 25 C; computed with kd fixed at 1.00E-05. As for the experimental part:
as §3, §4

For experiment [14] the target is unchanged. Put plainly: SPR Biacore 4000, anti-hFc-captured mAb, 25 C. An outline of the steps:
as §2

Experiment [15] addresses T4, Rat IL2Rγ extracellular domain …. Put plainly: SPR Biacore 4000, anti-hFc-captured mAb, 25 C. In outline:
as §2

Experiment [16] concerns the target T5, Mouse IL2Rγ extracellular domain …. The experiment in a line: SPR Biacore 4000, anti-hFc-captured mAb, 25 C. In outline: as §2

What is called koff is the rate constant with which the complex falls apart. Read a low koff as a long-lived complex. For orientation: Kd means the constant that tells how readily two partners part at equilibrium. What is called kon is the rate constant with which the complex forms. Low readings indicate slow association, high ones fast association.

A value given as a limit tells only on which side of the number the result lay.

B1: H4H12889P (antibody, human IgG4 S228P, kappa, V domains shown)
VH: EVQLVESGGGLVQPGGSLRLSCAASGFIFSSYEMHWVRQAPGKGLEWISYISSSGTTIYYADSVKGRFTISRDNAKNSLYLHMNSLRAEDTAVYYCTRARITGTFDVFDIWGQGTMVTVSS
VL: DIQMTQSPSSLSASVGDRVTITCRASQSISSYLNWYQQKPGKAPKLLIFAASNLQSGVPSRFSGSRSGTDFTLTISSLQPEDFATYYCQQNYNIPYTFGQGTKLEIKR
notes: fully human anti-IL2Rγ antibody, human IgG4; also called REGN7257
In the case of B1, the binding ratio in [1] was determined as 19; in experiment [2] it was 94.

B2: H4H12859P (antibody, human IgG4 S228P, kappa, V domains shown)
VH: QVQLVQSGAEVKKPGASVRVSCKASGYTFTDYDIHWVRQAPGHGLEWMGWINPNSGGTNYAQKFQGRVTMTRDTSISTVYMDLSRLRSDDTAVYYCARADYSSSYYYYGMDVWGQGTTVTVSS
VL: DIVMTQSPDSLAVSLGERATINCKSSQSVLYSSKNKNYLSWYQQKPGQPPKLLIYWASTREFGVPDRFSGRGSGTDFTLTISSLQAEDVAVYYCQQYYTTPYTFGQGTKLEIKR
notes: fully human anti-IL2Rγ antibody, human IgG4
Turning to B2, the binding ratio in experiment [3] came out at 1.

B3: H4H13538P (antibody, human IgG4 S228P, kappa, V domains shown)
VH: EVQLVESGGGLVQPGGSLGLSCAASGFTFSNYAMSWVRQAPGKGLEWVSAVSGGGGGTYYADSVKGRFTISRDNSKNTVLLQMNSLRAEDTAVYYCARGRTGGLDYWGPGTLVTVSS
VL: DVVMTQSPLSLPVIFGQPASISCRSSQSLVDSDGNTYLNWLQQRPGQSPRRLIYEVSNRDSGVPDRFSGSGSGTDFTLTISRVEAEDVGIYYCMQGTRWPPTFGGGTKVEIKR
notes: as for B2
Regarding B3, in experiment [4], the binding ratio is 1.

B4: H4H13541P (antibody, human IgG4 S228P, kappa, V domains shown)
VH: EVQLVESGGGVVRPGGSLRLSCAASGFIFDDYDMSWVRQPPGRGLEWVSGIDWFGGTRGYADSMKGRFTISRDNAKNSLYLQMNSLRVEDTAFYYCARGGAIVGAVTPFDYWGQGTLVTVSS
VL: DIQMTQSPSSLSASVGNRVTLSCRASQSINTYLSWYQQRPGKAPKLLIYAASSLQSGVPSRFSGSGAGTDFTLTISSLQPEDFATYYCQQSYSAPLTFGGGTKVEIKR
notes: as for B2
On to B4, for which the binding ratio in experiment [5] is 37.

B5: H4H12908P (antibody, human IgG4 S228P, kappa, V domains shown)
VH: EVQLVESGGRLVQPGGSLRLSCEASGFTFSNYGMTWVRQAPGKGLEWVSVISGSDNRKYYAESVKGRFTISRDNSKNTLYLQMNSLRAEDTAVYYCAKLGYSRSSKDFYYGMDVWGQGTTVTVSS
VL: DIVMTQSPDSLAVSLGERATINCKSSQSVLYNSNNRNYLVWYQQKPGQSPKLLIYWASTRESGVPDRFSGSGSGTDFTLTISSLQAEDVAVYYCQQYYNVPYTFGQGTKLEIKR
notes: fully human anti-IL2Rgamma mAb, human IgG4 Fc
As for B5, the koff was no more than 1e-05 s⁻¹ in [6]; 0.00148 s⁻¹ in [7]; 0.00835 s⁻¹ in experiment [9]; 0.0293 s⁻¹ in [10]; no more than 1e-05 s⁻¹ in [11]; 0.00237 s⁻¹ in experiment [15]. For the same molecule, in experiment [16], the koff turned out to be 0.00367 s⁻¹. For the same molecule, the “100 nM Ag Bound” value is 13 RU in experiment [7]; 8 RU in experiment [9]; 6 RU in experiment [10]; 19 RU in experiment [15]; 25 RU in [16]. Moreover, the Kd in experiment [7] was 39.8 nM; in experiment [9], 215 nM; in experiment [10], 387 nM; in experiment [12] it was no more than 0.518 nM; in [13], no more than 0.131 nM; in experiment [15] it was 79.3 nM. Moreover, the affinity in experiment [16], expressed as Kd, was 108 nM. Moreover, the kon in [7] stood at 37100 M⁻¹ s⁻¹; in experiment [8] it was 19300 M⁻¹ s⁻¹; in experiment [9], 38900 M⁻¹ s⁻¹; in [10], 75700 M⁻¹ s⁻¹; in [14], 76200 M⁻¹ s⁻¹; in experiment [15], 29800 M⁻¹ s⁻¹. In experiment [16], this molecule displayed a kon of 34100 M⁻¹ s⁻¹. In addition, the t1/2 in experiment [7] was 8 min; in experiment [9], 1.4 min; in [10] it was 0.4 min; in [12], no less than 1160 min; in [13] it was no less than 1160 min; in [15], 5 min. Further, in experiment [16], the t1/2 was determined as 3.1 min. Also, the “50 nM Ag Bound” value in experiment [8] was 8 RU; in [14], 11 RU.
